Data taken from patent US20250179196A1 (Janssen / Centocor, published 2025).

T1: human IL-23R expressed on the cell surface of stably transfected iLite and HEK cell lines (human, UniProt Q5VWK5 24-629)
T1 construct: whole, on cells; Same receptor on two transfected cell lines; the cell line is named under assay; also called human IL-23R iLite cells; human IL-23R HEK cells
T1 sequence (looked up): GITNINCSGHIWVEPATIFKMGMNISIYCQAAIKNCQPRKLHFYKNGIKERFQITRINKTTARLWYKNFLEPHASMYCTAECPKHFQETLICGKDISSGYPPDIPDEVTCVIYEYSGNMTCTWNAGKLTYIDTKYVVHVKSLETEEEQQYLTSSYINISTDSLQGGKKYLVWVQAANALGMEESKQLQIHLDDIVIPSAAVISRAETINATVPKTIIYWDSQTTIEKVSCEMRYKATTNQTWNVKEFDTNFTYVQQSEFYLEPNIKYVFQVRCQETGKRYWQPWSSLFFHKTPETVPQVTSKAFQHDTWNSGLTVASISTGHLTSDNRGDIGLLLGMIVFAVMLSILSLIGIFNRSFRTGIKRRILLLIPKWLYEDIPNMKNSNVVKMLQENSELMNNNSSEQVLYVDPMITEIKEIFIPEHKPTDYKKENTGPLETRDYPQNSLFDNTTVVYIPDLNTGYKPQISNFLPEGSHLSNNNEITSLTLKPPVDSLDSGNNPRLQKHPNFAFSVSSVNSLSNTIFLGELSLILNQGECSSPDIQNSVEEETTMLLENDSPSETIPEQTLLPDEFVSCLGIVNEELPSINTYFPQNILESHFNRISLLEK

B1: I23RB159 (antibody, mouse IgG2a, kappa, V domains shown)
VH: EVQLQQSGGGLVKPGGSLKLSCAASGFTFSDYGMAWVRQTPRKGPEWIAFISNLAYSVYYSDTVTGRFTISRENAKNTLYLEMSSLRSEDTAMYYCARHGDYRNYGFAYWGLGTTVTVSS
VL: DIVMTQTTSSLSASLGDRVTISCRASQDISNYLNWYQQKPDGTVKLLIYYTSRLHSGVPSRFSGSGSGTDYSLTISNLEQEDIATYFCQQGNTLPWTFGAGTKLELKR
notes: immunization; mouse IgG2a/kappa
B2: I23RB259 (antibody, mouse IgG2a, kappa, V domains shown)
VH: QVQLVQSGAEVKKPGSSVKVSCKASGGTFSSYGISWVRQAPGQGLEWMGWISPIFGTTNYAQKFQGRVTITADESTSTAYMELSSLRSEDTAVYYCARMMMQSLDYWGQGTLVTVSS
VL: not shown
notes: phage display; human V, mouse IgG2a/kappa
B3: I23RB161 (antibody, mouse IgG2a, kappa, V domains shown)
VH: EFQLQQSGPELVKPGASVKISCKASVYAFSSSWMNWVKQRPGKGLEWIGRIYPGDGDTNYNGKFKGKATLTADKSSSTAYMQLSSLTSEDSAVYFCARRYDFGSAMDYWGQGTSVTVSS
VL: DIVMTQSPAILSASPGEKVTMTCRASSSVSYMHWYQQKPGSSPKPWIYATSDLASGAPARFSGSGSGTSYSLTISRVEAEDAATYYCQQWSSNPPTFGGGTKLEIKR
notes: as for B1
B4: I23RB269 (antibody, mouse IgG2a, kappa, V domains shown)
VH: QVQLVQSGAEVKKPGSSVKVSCKASGGTFSDASISWVRQAPGQGLEWMGTIIPISGNANYAQKFQGRVTITADESTSTAYMELSSLRSEDTAVYYCARDRYVWYYWDGYFDYWGQGTLVTVSS
VL: not shown
notes: as for B2
B5: I23RB177 (antibody, mouse IgG2a, kappa, V domains shown)
VH: EVQLQQSGPELLKPGASVKISCKASGYTITDYTMHWVKQSHGKSLEWIGGINPNYGGTSYNEKFKDKATLTVDKSSSTAYMELRSLTSEDSAVFYCVRGNIYFDYWGQGTTLTVSS
VL: NTQMTQSPSSMYASLGERVTITCKASQDINSYLSWFQQKPGKSPKALIYRANRLVDGVPSRFSGSGSGQDYSLTISSLEYEDMGIYYCQQYDEFPRTFGAGTKLELKR
notes: as for B1
B6: I23RB94 (antibody, mouse IgG2a, kappa, V domains shown)
VH: DVQLQESGPELKKPGETVKISCKASGYTFTNYGMNWVRQAPGKSLKWMGWINTNTGEPAYAEEFKGRFAFSLETSASTAYLQINNLKNEDMATYFCARVRQTARATRGYFDVWGTGTTVTVSS
VL: DIVMTQSHKFMSTSVGDRVSITCKASQDVNTAVAWYQQKPGQSPKLLIYSAFYRYPGVPDRFTGSGSGTDFTFTINSVQAEDLAVYCCQQHYTSPLTFGDGTRLEIKR
notes: as for B1
B7: I23RB268 (antibody, mouse IgG2a, kappa, V domains shown)
VH: QVQLVQSGAEVKKPGSSVKVSCKASGGTFSSYYIHWVRQAPGQGLEWMGGIIPIFGYANYAQKFQGRVTITADESTSTAYMELSSLRSEDTAVYYCARDPGSYGSVYYRRSYYFDYWGQGTLVTVSS
VL: EIVLTQSPATLSLSPGERATLSCRASQSVSSYLAWYQQKPGQAPRLLIYDASNRATGIPARFSGSGSGTDFTLTISSLEPEDFAVYYCQQRSNWPLTFGQGTKVEIKR
notes: as for B2
B8: I23RB270 (antibody, mouse IgG2a, kappa, V domains shown)
VH: QVQLVQSGAEVKKPGSSVKVSCKASGGTFDSYAISWVRQAPGQGLEWMGGIIPISGYANYAQKFQGRVTITADESTSTAYMELSSLRSEDTAVYYCARDLSGGYLGLRTLYYYYFDYWGQGTLVTVSS
VL: B7 VL
notes: as for B2

molecular target: T1, human IL-23R expressed on the cell …; experiment: flow cytometry on human IL-23R HEK cells, Expt D (8-point, 96well)
Procedure: HEK-IL-23R cell concentration response mAb binding (8-point, 96-well assay). […] HEK-IL-23R and HEK-parental cells (12.5 μL of each, 120000 cells total) were plated in 2× replicate on 96-well V-bottom plates (Corning, Cat #3357) into 37° C. warmed Assay medium containing serially diluted IL-23R mAbs to a final volume of 150 μL. IL-23R mAbs were allowed to bind to cells for 30 minutes, at 37° C. […] Cells were next washed twice in ice-cold stain buffer, then resuspended in a final volume of 30 μL with Sytox Green viability dye (ThermoFisher, Cat #S7020). Plates were kept on ice until run for analysis on the iQue. All washes were performed by centrifugation (800 rcf, 3 minutes) followed by flick decantation to remove supernatants. Cell-binding to HEK-IL-23R cells was measured with FlowJo, by gating for single, viable cells and determining the geometric mean fluorescence intensity (MFI) for the 647 detection antibody. Geometric mean fluorescence intensities were plotted over log mAb concentrations fitted with a dose response curve with variable slope using GraphPad Prism.

| Binder | EC50 [nM] |
| --- | --- |
| B1 | > 50 |
| B2 | 29.7 |
| B3 | 0.8 |
| B4 | 0.6 |
| B5 | > 50 |
| B6 | 0.1 |
| B7 | 20.6 |
| B8 | 0.5 |

molecular target: T1, human IL-23R expressed on the cell …; experiment: flow cytometry on human IL-23R HEK cells, Expt E (11-point, 384well)
Procedure: HEK-IL-23R cell concentration response mAb binding (11-point, 384-well assay). […] IL-23R mAbs were allowed to bind to cells for 30 minutes, at 37° C. […] Cells were next washed twice in ice-cold stain buffer, then resuspended in a final volume of 10 μL with Sytox Green viability dye (ThermoFisher, Cat #S7020). Plates were kept on ice until run for analysis on the iQue. All washes were performed by centrifugation (800 rcf, 3 minutes) followed by automated aspiration to remove supernatants with plate washers. Cell-binding to HEK-IL-23R cells was measured with FlowJo, by gating for single, viable cells and determining the geometric mean fluorescence intensity (MFI) for the 647 detection antibody. Geometric mean fluorescence intensities were plotted over log mAb concentrations fitted with a dose response curve with variable slope using GraphPad Prism.

| Binder | EC50 [nM] | MFI (6.4 nM) [MFI] |
| --- | --- | --- |
| B2 | > 50 | 30900 |
| B4 | 14.7 | 96800 |
| B6 | 2.8 | 364000 |
| B7 | 38.2 | 51900 |
| B8 | 7.2 | 243000 |
